According to the supplement of paper PMC10567573:

B1: DYRK1B (parent)
chain: ARKYFERLPGGGWTLRRTKELRKD
B2: TRAF3IP2 (parent)
chain: PGQPLPGASVRGLHPVQKVILNYP

Variants of: B1
Test: protein stability index of a GFP-peptide fusion (GPS, HEK-293T) (PSI 1-6); higher = more stable
Conditions: c terminus: a fixed tail appended
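Note: lentivirally expressed fusions sorted by FACS into six bins by GFP to DsRed ratio, PSI derived from sequencing read proportions per bin multiplied by bin number.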

Row | Variant | protein stability index
1 | A1I | 2.47
2 | A1E | 3.96
3 | A1M | 2.84
4 | A1K | 4.13
5 | A1G | 3.78
6 | A1L | 2.36
7 | A1F | 2.44
8 | A1N | 3.69
9 | A1D | 4.11
10 | A1H | 3.66

Variants of: B2
Test: as above
Conditions: c terminus: a fixed tail appended

Row | Variant | protein stability index
11 | S9P | 3.58
12 | S9N | 3.33
13 | S9G | 3.2
14 | S9W | 2.97
15 | S9D | 3.08
16 | S9R | 2.22
17 | S9M | 2.68
18 | S9H | 3.5
19 | S9V | 3.27
20 | S9F | 2.21
21 | S9Y | 2.62
22 | S9A | 3.99
23 | S9E | 2.92
24 | S9Q | 2.86
25 | S9T | 3.48
26 | S9K | 3.19
27 | S9I | 2.16
28 | S9L | 3.09
29 | K18V | 2.02
30 | K18N | 2.65
31 | K18S | 3.27
32 | K18Q | 3.78
33 | K18G | 3.57
34 | K18F | 2.3
35 | K18H | 2.85

Row | Variant | protein stability index
36 | K18D | 3.6
37 | K18A | 2.64
38 | K18R | 2.64
39 | K18P | 2.99
40 | K18M | 2.72
41 | K18T | 3.38
42 | K18C | 2.09
43 | K18L | 2.31
44 | K18W | 2.76
45 | K18Y | 2.52
46 | K18I | 2.08
47 | N22S | 3.27
48 | N22E | 3.51
49 | N22C | 2.51
50 | N22P | 3.44
51 | N22Q | 2.98
52 | N22M | 2.3
53 | N22T | 3.05
54 | N22H | 2.49
55 | N22Y | 1.95
56 | N22F | 1.59
57 | N22A | 2.74
58 | N22R | 4.18
59 | N22G | 2.54
60 | N22L | 1.83

Row | Variant | protein stability index
61 | N22D | 3.13
62 | N22V | 1.69
63 | P15Q | 3.85
64 | P15M | 2.05
65 | P15K | 2.75
66 | P15G | 2.76
67 | P15C | 2.13
68 | P15A | 2.29
69 | P15N | 2.92
70 | P15V | 2.02
71 | P15H | 3.08
72 | P15D | 3.53
73 | P15L | 2.25
74 | P15R | 3.39
75 | P15I | 1.76
76 | P15Y | 1.91
77 | P15E | 3.12
78 | P15S | 2.79
79 | P15T | 2.48
80 | A8K | 2.62
81 | A8G | 3.24
82 | A8P | 3.08
83 | A8R | 2.89
84 | A8Q | 2.59
85 | A8V | 2.39

Row | Variant | protein stability index
86 | A8I | 2.83
87 | A8L | 3.21
88 | A8E | 3.36
89 | A8N | 3.47
90 | A8F | 2.51
91 | A8T | 3.65
92 | A8C | 2.27
93 | A8D | 3.19
94 | A8S | 3.27
95 | A8Y | 2.71
96 | A8M | 2.97
97 | A8H | 2.97
98 | V16L | 2.57
99 | V16N | 3.61
100 | V16A | 3.24
101 | V16Y | 2.04
102 | V16W | 2.54
103 | V16I | 3.09
104 | V16H | 3.03
105 | V16F | 2.83
106 | V16M | 2.72
107 | V16S | 3.46
108 | V16E | 3.44
109 | V16Q | 3.63
110 | V16R | 3.49

Row | Variant | protein stability index
111 | V16D | 4.08
112 | V16P | 2.66
113 | V16T | 3.36
114 | V16C | 2.93
115 | V19E | 4.06
116 | V19M | 2.74
117 | V19P | 3.29
118 | V19F | 2.45
119 | V19K | 3.32
120 | V19N | 3.59
121 | V19C | 3.16
122 | V19R | 2.82
123 | V19H | 3.06
124 | V19I | 3.26
125 | V19S | 3.09
126 | V19Y | 2.91
127 | V19Q | 3.71
128 | V19A | 3
129 | V19T | 3.59
130 | V19W | 3.38
131 | V19L | 3.23
132 | V19D | 3.23
133 | Q17H | 2.9
134 | Q17W | 1.87
135 | Q17F | 1.26

Row | Variant | protein stability index
136 | Q17G | 3.1
137 | Q17V | 1.35
138 | Q17K | 2.97
139 | Q17I | 2.24
140 | Q17N | 2.8
141 | Q17A | 2.62
142 | Q17P | 3.51
143 | Q17M | 2.43
144 | Q17C | 2.52
145 | Q17Y | 3.02
146 | Q17S | 2.77
147 | Q17E | 2.95
148 | Q17T | 2.81
149 | Q17R | 3
150 | Q17L | 1.71
151 | L21Q | 3.79
152 | L21W | 2.22
153 | L21N | 3.6
154 | L21E | 3.71
155 | L21F | 2.79
156 | L21H | 3.63
157 | L21T | 3.71
158 | L21Y | 3.24
159 | L21M | 3.45
160 | L21K | 3.99

Row | Variant | protein stability index
161 | L21V | 2.87
162 | L21I | 3.5
163 | L21C | 3.23
164 | L21S | 3.55
165 | L21D | 4.22
166 | L21R | 2.76
167 | L21P | 3.66
168 | L21G | 3.64
169 | R11H | 3.51
170 | R11A | 2.6
171 | R11P | 3.79
172 | R11F | 2.06
173 | R11D | 3.71
174 | R11K | 2.88
175 | R11S | 3.12
176 | R11L | 2.25
177 | R11N | 2.96
178 | R11I | 2.96
179 | R11Y | 3.4
180 | R11G | 2.73
181 | R11E | 3.19
182 | R11V | 2.84
183 | R11C | 3.3
184 | R11T | 3.2
185 | R11M | 2.75

Row | Variant | protein stability index
186 | R11Q | 3.79
187 | R11W | 2.08
188 | V10C | 3.29
189 | V10T | 2.87
190 | V10Y | 3
191 | V10K | 2.89
192 | V10S | 3
193 | V10F | 2.36
194 | V10W | 2.62
195 | V10P | 3.22
196 | V10L | 2.61
197 | V10G | 3.54
198 | V10D | 2.96
199 | V10Q | 3.05
200 | V10H | 2.79
201 | V10R | 2.57
202 | V10I | 2.84
203 | V10M | 3
204 | V10N | 3.5
205 | V10E | 3.19
206 | V10A | 3.52
207 | Y23G | 3.71
208 | Y23C | 3.42
209 | Y23S | 4.02
210 | Y23I | 3.19

Row | Variant | protein stability index
211 | Y23R | 3.5
212 | Y23D | 4.72
213 | Y23F | 3.45
214 | Y23H | 3.95
215 | Y23W | 2.52
216 | Y23Q | 4.07
217 | Y23A | 3.9
218 | Y23E | 3.86
219 | Y23T | 3.43
220 | Y23M | 3.36
221 | Y23V | 3.26
222 | Y23N | 3.63
223 | Y23L | 2.71
224 | Y23P | 4.11
225 | Y23K | 4.43
226 | G7V | 3.26
227 | G7L | 3.44
228 | G7S | 2.76
229 | G7C | 2.59
230 | G7Q | 3.12
231 | G7H | 3.2
232 | G7W | 2.09
233 | G7E | 3.55
234 | G7P | 3.04
235 | G7K | 2.76

Row | Variant | protein stability index
236 | G7R | 2.69
237 | G7Y | 2.26
238 | G7M | 3
239 | G7D | 3.22
240 | G7N | 2.68
241 | G7T | 3.31
242 | G7F | 3.15
243 | G7I | 3.05
244 | P24C | 2.69
245 | P24Y | 1.79
246 | P24K | 3.43
247 | P24V | 1.93
248 | P24N | 3.5
249 | P24M | 1.22
250 | P24T | 2.71
251 | P24L | 2.13
252 | P24E | 3.31
253 | P24H | 2.38
254 | P24A | 3.16
255 | P24I | 1.77
256 | P24G | 2.56
257 | P24F | 1.78
258 | P24S | 2.7
259 | P24D | 3.68
260 | P24R | 2.65

Row | Variant | protein stability index
261 | P24Q | 3.11
262 | P24W | 2.72
263 | G12E | 3.87
264 | G12N | 2.94
265 | G12S | 3.39
266 | G12M | 2.85
267 | G12L | 2.12
268 | G12P | 3.14
269 | G12A | 3.69
270 | G12W | 1.96
271 | G12V | 2.43
272 | G12Y | 2.74
273 | G12F | 2.3
274 | G12K | 3.2
275 | G12H | 2.7
276 | G12D | 3.64
277 | G12C | 2.72
278 | G12I | 2.63
279 | G12Q | 3.42
280 | G12R | 2.76
281 | L13A | 3.38
282 | L13I | 3.1
283 | L13W | 3.02
284 | L13Y | 2.26
285 | L13D | 3.68

Row | Variant | protein stability index
286 | L13G | 3.31
287 | L13F | 2.91
288 | L13T | 3.56
289 | L13Q | 3.69
290 | L13M | 3.59
291 | L13H | 3.75
292 | L13E | 3.9
293 | L13K | 3.5
294 | L13S | 3.42
295 | L13N | 3.36
296 | L13R | 3.68
297 | L13P | 3.84
298 | L13V | 2.85
299 | L13C | 1.83
300 | H14D | 3.67
301 | H14Y | 2.82
302 | H14T | 3.29
303 | H14F | 2.61
304 | H14V | 2.96
305 | H14N | 3.24
306 | H14I | 3.04
307 | H14P | 3.67
308 | H14E | 3.96
309 | H14G | 2.59
310 | H14M | 2.69

Row | Variant | protein stability index
311 | H14A | 3.45
312 | H14S | 3.19
313 | H14W | 2.15
314 | H14R | 3.37
315 | H14Q | 3.67
316 | H14K | 3.51
317 | H14L | 2.83
318 | H14C | 3.3
319 | I20E | 3.91
320 | I20H | 2.95
321 | I20S | 4.67
322 | I20M | 3.42
323 | I20P | 3.36
324 | I20F | 3.38
325 | I20L | 3.45
326 | I20R | 3.89
327 | I20A | 3.89
328 | I20K | 4.01
329 | I20V | 2.93
330 | I20Q | 3.87
331 | I20N | 3.72
332 | I20T | 3.03
333 | I20C | 3.25
334 | I20D | 3.84
